This test deals with heat-aggregated GFP.

Consider “Hsp104 D484K (from UniProt P31539 1-908) (enzyme)”, for which the apparent KM for aggregated GFP from initial rates of GFP disaggregation by Hsp104 D484K (0.06 uM, 10 mM ATP): fold gain of affinity with Ssa1 (2 uM) and Ydj1 (0.5 uM) was > 25 fold; the apparent KM for aggregated GFP from initial rates of GFP disaggregation by Hsp104 D484K (0.06 uM, 10 mM ATP): fold increase of the apparent KM with 1 mM ADP was 2 fold.
